We go through two molecules from article PMC5039622, “Characterization of aspartyl aminopeptidase from Toxoplasma gondii” (Scientific Reports, 2016).

Data set [1] has as its target T1, rTgAAP (TgAAP, aspartyl aminopeptidase) (Toxoplasma gondii, UniProt A0A7J6KF82).
T1 construct: gene TGRH88_002740; full-length CDS 1521 bp, ~56 kDa (55897 Da predicted in ToxoDB), N-terminal GST tag kept (~80 kDa), E. coli BL21, pCold III; mainly dodecamer, also trimer and monomer on native PAGE
T1 sequence (A0A7J6KF82 1-508): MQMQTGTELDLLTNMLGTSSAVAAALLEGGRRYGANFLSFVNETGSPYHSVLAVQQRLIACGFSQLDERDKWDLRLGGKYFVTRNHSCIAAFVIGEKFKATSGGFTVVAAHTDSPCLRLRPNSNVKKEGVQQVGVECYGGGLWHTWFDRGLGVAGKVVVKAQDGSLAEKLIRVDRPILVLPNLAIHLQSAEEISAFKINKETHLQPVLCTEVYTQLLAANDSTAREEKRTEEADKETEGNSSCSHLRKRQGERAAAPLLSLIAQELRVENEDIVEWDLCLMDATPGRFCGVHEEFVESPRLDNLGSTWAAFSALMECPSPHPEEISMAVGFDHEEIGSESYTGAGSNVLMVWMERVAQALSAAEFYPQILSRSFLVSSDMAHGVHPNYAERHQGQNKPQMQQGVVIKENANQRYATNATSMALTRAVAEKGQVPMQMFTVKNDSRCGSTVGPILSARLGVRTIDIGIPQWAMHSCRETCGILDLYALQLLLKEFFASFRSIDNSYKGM
In words: inhibition of H-Glu-MCA hydrolysis. The class given is biochemical. To be noted: 1 h pre-incubation at 37 °C; substrate H-Glu-MCA.

Substrate in data set [2]: Cc1cc(=O)oc2cc(NC(=O)[C@@H](N)CC(=O)O)ccc12
In words: fluorogenic MCA release, initial rates. The class given is biochemical, Toxoplasma gondii. Particulars: 37 °C, enzyme 0.3 μM, metal not stated for the kinetics. An excerpt:
(§1) fluorogenic MCA release, initial rates on rTgAAP (TgAAP, aspartyl aminopeptidase)

Substrate in data set [3]: Cc1cc(=O)oc2cc(NC(=O)[C@@H](N)CC(N)=O)ccc12
The experiment in a line: fluorogenic MCA release, initial rates. The class given is biochemical, Toxoplasma gondii. To be noted: 37 °C, enzyme 0.3 μM, metal not stated for the kinetics.
Excerpt: as §1

Substrate in data set [4]: Cc1cc(=O)oc2cc(NC(=O)[C@@H](N)CCC(=O)O)ccc12
The experiment in a line: fluorogenic MCA release, initial rates. The class given is biochemical, Toxoplasma gondii. Particulars: 37 °C, enzyme 0.3 μM, metal not stated for the kinetics.
Excerpt: as §1

Substrate in data set [5]: Cc1cc(=O)oc2cc(NC(=O)[C@@H](N)CO)ccc12
The experiment in a line: fluorogenic MCA release, initial rates. Format: biochemical, Toxoplasma gondii. To be noted: 37 °C, enzyme 0.3 μM, metal not stated for the kinetics.
Excerpt: as §1

Substrate in data set [6]: Cc1cc(=O)oc2cc(NC(=O)[C@@H](N)Cc3c[nH]cn3)ccc12
The experiment in a line: fluorogenic MCA release, initial rates. Format: biochemical, Toxoplasma gondii. To be noted: 37 °C, enzyme 0.3 μM, metal not stated for the kinetics.
Excerpt: as §1

Substrate in data set [7]: Cc1cc(=O)oc2cc(NC(=O)[C@@H]3CCCN3)ccc12
In words: fluorogenic MCA release, initial rates. The class given is biochemical, Toxoplasma gondii. Particulars: 37 °C, enzyme 0.3 μM, metal not stated for the kinetics, printed kcat/Km 0.28 disagrees tenfold with printed kcat and Km.
Excerpt: as §1

Some results are limits rather than exact numbers.

For orientation: % inhibition means the relative decrease from the control value, in per cent. A low value points to a response near the control. Consider `Cl.Oc1ccc(CCNc2c3ccccc3nc3ccccc23)cc1O` [CID 23724194], for which, in data set [1], the “% inhibition at 1 mM” value is above 50%.

B1: rTgAAP (TgAAP, aspartyl aminopeptidase) (Toxoplasma gondii) (protein)
chain: T1 sequence (A0A7J6KF82 1-508)
notes: full-length CDS 1521 bp, ~56 kDa (55897 Da predicted in ToxoDB), N-terminal GST tag kept (~80 kDa), E. coli BL21, pCold III; mainly dodecamer, also trimer and monomer on native PAGE
In general, Km refers to the concentration of substrate that gives half-maximal velocity. As usually defined, the kcat is the maximal rate divided by the concentration of active sites. For orientation: kcat/Km means the turnover number divided by the Michaelis constant. Regarding B1, the Michaelis constant (Km) in data set [2] came to 12.84 ± 0.21 µM; in data set [3] it was 24.32 ± 0.26 µM; in data set [4], 7.35 ± 0.73 µM; in data set [5], 92.87 ± 3.38 µM; in data set [6], 88.70 ± 2.53 µM; in data set [7], 98.55 ± 1.96 µM. Moreover, the turnover number (kcat) in data set [2] came out at 1.1 ± 0.0648 s⁻¹; in data set [3], 0.484 ± 0.0126 s⁻¹; in data set [4], 1.4 ± 0.306 s⁻¹; in data set [5], 0.123 ± 0.0086 s⁻¹; in data set [6], 0.208 ± 0.0043 s⁻¹. For the same molecule, the kcat/Km in data set [2] turned out to be 85700 M⁻¹ s⁻¹; in data set [3], 19900 M⁻¹ s⁻¹; in data set [4] it was 190000 M⁻¹ s⁻¹; in data set [5] it was 1330 M⁻¹ s⁻¹; in data set [6], 2350 M⁻¹ s⁻¹.
